Test results: US20240084030A1 (University of California, published 2024)

Columns and labels:
Nectin-4 = target: T1, Nectin-4 (UniProt Q96NY8 32-510, limits assumed); assay: statement in Example 2; no direct binding assay, only degradation on HT-1376 cells
T1 construct: whole, on cells; Endogenous receptor on HT-1376 cells
T1 sequence (looked up): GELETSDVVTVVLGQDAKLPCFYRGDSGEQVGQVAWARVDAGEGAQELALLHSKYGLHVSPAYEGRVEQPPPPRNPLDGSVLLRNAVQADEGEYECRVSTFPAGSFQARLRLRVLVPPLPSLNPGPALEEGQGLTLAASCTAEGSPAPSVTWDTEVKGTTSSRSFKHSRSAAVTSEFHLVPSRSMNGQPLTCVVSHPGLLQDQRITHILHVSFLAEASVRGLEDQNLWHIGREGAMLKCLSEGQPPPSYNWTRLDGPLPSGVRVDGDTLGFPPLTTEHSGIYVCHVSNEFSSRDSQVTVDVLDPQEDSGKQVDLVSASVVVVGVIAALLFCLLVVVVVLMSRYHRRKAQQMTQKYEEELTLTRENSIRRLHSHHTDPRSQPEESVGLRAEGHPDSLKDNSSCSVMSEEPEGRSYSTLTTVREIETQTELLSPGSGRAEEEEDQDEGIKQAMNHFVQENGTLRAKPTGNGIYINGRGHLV
Description: (§1) After incubation at 37° C. for the designated time point, cells were washed with phosphate-buffered saline (PBS), lifted with versene, and harvested by centrifugation at 300×g for 5 min at 4° C. Samples were then tested by western blotting or flow cytometry to quantify protein levels.
(§2) Western blotting: Cell pellets were lysed with 1×RIPA buffer containing cOmplete mini protease inhibitor cocktail (Sigma-Aldrich) at 4° C. for 40 min. Lysates were centrifuged at 16,000×g for 10 min at 4° C. and protein concentrations were normalized using BCA assay (Pierce). 4×NuPAGE LDS sample buffer (Invitrogen) and 2-mercaptoethanol (BME) was added to the lysates and boiled for 10 min. Equal amounts of lysates were loaded onto a 4-12% Bis-Tris gel and ran at 200V for 37 min. The gel was incubated in 20% ethanol for 10 min and transferred onto a polyvinylidene difluoride (PVDF) membrane. The membrane was blocked in PBS with 0.1% Tween-20+5% bovine serum albumin (BSA) for 30 min at room temperature with gentle shaking. Membranes were incubated overnight with primary antibodies at respective dilutions at 4° C. with gentle shaking in PBS+0.2% Tween-20+5% BSA. […] Band intensities were quantified using Image Studio Software (LI-COR). […]

CDCP1 = target: T2, CDCP1 (UniProt Q9H5V8 30-836, limits assumed); assay: as above
T2 construct: whole, on cells; Endogenous protein on HT-1376 cells; also called cell surface CDCP1
T2 sequence (looked up): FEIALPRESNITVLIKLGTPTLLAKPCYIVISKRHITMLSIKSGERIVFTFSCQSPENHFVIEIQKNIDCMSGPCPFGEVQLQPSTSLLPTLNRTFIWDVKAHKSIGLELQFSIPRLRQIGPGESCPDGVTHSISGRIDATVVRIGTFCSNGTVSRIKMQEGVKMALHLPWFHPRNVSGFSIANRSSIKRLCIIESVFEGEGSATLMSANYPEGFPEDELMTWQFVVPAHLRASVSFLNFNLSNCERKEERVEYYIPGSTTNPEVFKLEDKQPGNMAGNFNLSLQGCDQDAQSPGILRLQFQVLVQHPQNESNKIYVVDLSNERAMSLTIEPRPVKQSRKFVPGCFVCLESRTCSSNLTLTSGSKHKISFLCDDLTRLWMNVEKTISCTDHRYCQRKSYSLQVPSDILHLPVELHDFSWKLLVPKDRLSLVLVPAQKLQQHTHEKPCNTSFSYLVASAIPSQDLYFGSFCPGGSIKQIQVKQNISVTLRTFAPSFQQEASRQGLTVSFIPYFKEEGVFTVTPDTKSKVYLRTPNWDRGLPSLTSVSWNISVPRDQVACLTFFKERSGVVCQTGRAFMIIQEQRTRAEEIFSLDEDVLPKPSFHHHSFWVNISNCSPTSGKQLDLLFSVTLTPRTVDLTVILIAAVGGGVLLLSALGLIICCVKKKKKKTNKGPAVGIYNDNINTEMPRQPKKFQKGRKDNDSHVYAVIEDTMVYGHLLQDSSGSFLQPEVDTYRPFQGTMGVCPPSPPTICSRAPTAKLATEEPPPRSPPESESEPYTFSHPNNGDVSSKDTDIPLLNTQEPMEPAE
Description: as §1, §2

B1: Enfortumab-4A06 bispecific antibody (bispecific antibody)
heavy 1: not shown
light 1: DIQMTQSPSSVSASVGDRVTITCRASQGISGWLAWYQQKPGKAPKFLIYAASTLQSGVPSRFSGSGSGTDFTLTISSLQPEDFATYYCQQANSFPPTFGGGTKVEIKRTVAAPSVFIFPPSDEQLKSGTASVVCLLNNFYPREAKVQWKVDNALQSGNSQESVTEQDSKDSTYSLSSTLTLSKADYEKHKVYACEVTHQGLSSPVTKSFNRGEC
heavy 2: EISEVQLVESGGGLVQPGGSLRLSCAASGFNLSYYYIHWVRQAPGKGLEWVASIYSSSSYTSYADSVKGRFTISADTSKNTAYLQMNSLRAEDTAVYYCARAYYGFDYWGQGTLVTVSSASTKGPSVFPLAPSSKSTSGGTAALGCLVKDYFPEPVTVSWNSGALTSGVHTFPAVLQSSGLYSLSSVVTVPSSSLGTQTYICNVNHKPSNTKVDKKVEPKSCDKTHTCPPCPAPELLGGPSVFLFPPKPKDTLMISRTPEVTCVVVDVSHEDPEVKFNWYVDGVEVHNAKTKPREEQYNSTYRVVSVLTVLHQDWLNGKEYKCKVSNKALPAPIEKTISKAKGQPREPQVYTLPPIRELMTSNQVSLSCAVKGFYPSDIAVEWESNGQPENNYKTTPPVLDSDGSFFLVSKLTVDKSRWQQGNVFSCSVMHEALHNHYTQKSLSLSPGK
light 2: DIQMTQSPSSLSASVGDRVTITCRASQSVSSAVAWYQQKPGKAPKLLIYSASSLYSGVPSRFSGSRSGTDFTLTISSLQPEDFATYYCQQSYYYYPITFGQGTKVEIKRTVAAPSVFIFPPSDSQLKSGTASVVCLLNNFYPREAKVQWKVDNALQSGNSQESVTEQDSKDSTYSLSSTLTLSKADYEKHKVYACEVTHQGLSSPVTKSFNRGECGGSDYKDDDDK
notes: It has four different chains; also called Enfortumab (Nectin-4)-4A06 (CDCP1); Enfortumab-4A06 antibody
binding result (Nectin-4): binds
binding result (CDCP1): binds
